The results in this text go back to patent publication US20190367612A1 (Daiichi Sankyo, published 2019).

First the molecules themselves.
B1: human GPRC5D amino-terminal peptide MYKDCIESTGDYFLLCDAEGPWGIILE-K(Biotin)-NH2, having an intramolecular disulfide bond (peptide)
peptide: MYKDCIESTGDYFLLCDAEGPWGIILEK(Biotin)-NH2
modifications: disulfide 5-16 (inferred)
notes: Peptide Institute synthetic peptide; also called amino-terminal peptide of biotinylated human GPRC5D (disulfide bond present)
B2: rat anti-GPRC5D antibody 2B1 (antibody, V domains shown)
VH: QVTLKESGPGILQPSQTLSLTCTFSGFSLNTYDMGVGWIRQPSGKGLEWLANIWWDDDKYYNPSLRNRLTISKDTSNNQAFLKITNVDTADTATYYCARIETVRVSRKGFAHWGQGTLVTVSS
VL: ETVMTQSPTSMSTSIGERVTLNCKASQSVGINVDWYQQTPGQSPKLLIYGASNRHTGVPDRFTGSGFGRDFTLTISNVEAEDLAVYYCLQHGSIPPTFGGGTKLELK
notes: Rat IgG2b, kappa chain
B4: human GPRC5D amino-terminal peptide …(Biotin)-NH2, lacking an intramolecular disulfide bond (peptide)
peptide: MYKDCIESTGDYFLLCDAEGPWGIILE(Biotin)-NH2
modifications: cysteine pairing not given here
notes: Sigma-Aldrich synthetic peptide; also called amino-terminal peptide of human GPRC5D (disulfide bond absent)

The target in assay [1] is T1, rat anti-GPRC5D antibody 2A4.
T1 construct: Rat IgG2b, kappa chain
T1 sequence (VH, as listed by the source, chain 1 of 2): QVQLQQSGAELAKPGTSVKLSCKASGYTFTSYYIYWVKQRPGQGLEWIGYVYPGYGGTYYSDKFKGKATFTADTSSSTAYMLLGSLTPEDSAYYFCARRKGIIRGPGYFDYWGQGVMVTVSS
T1 sequence (VL, as listed by the source, chain 2 of 2): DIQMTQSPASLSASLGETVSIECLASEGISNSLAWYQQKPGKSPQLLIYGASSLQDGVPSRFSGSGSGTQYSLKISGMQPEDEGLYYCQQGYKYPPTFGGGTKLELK
Description: flow cytometry competition on KMS-34 cells: the peptide with the intramolecular disulfide bond is added together with a fixed amount of 2A4; readout: binding of 2A4 to human GPRC5D on the cells. The method, then: (§1) Human multiple myeloma cell line KMS-34 cells expressing GPRC5D were adjusted to a concentration of 2×10⁶ cells/mL with PBS containing 5% FBS, inoculated in an amount of 100 μL/well to a 96-well U-bottomed microplate, and centrifuged to remove a supernatant. Each rat anti-GPRC5D antibody (2A4, 2B1, and 7B4) adjusted to 7.5 μg/mL in Example 1)-7, or Rat IgG2b isotype control antibody (Medical & Biological Laboratories Co., Ltd. (MBL)) was added thereto in an amount of 100 μL/well. The two types of peptides used in Example 2)-2-1 were each adjusted to 17 ng/mL to 34 μg/mL with PBS and added in an amount of 100 μL/well to the wells containing the antibody dilution, and the plate was left standing at 4° C. for 1 hour. The cells were washed twice with PBS containing 5% FBS. Then, PE Goat Anti-Rat Ab (Becton, Dickinson and Company) diluted 100-fold with PBS containing 5% FBS was added thereto in an amount of 100 μL/well, and the plate was left standing at 4° C. for 1 hour. The cells were washed twice with PBS containing 5% FBS and then resuspended in PBS containing 5% FBS, followed by detection using a flow cytometer (FACSCanto™ II; Becton, Dickinson and Company). The data was analyzed using Flowjo (Tree Star, Inc.). The PE fluorescence intensity of the cell fraction was plotted to a histogram, and the mean fluorescence intensity (MFI) was calculated. […]
(Flow cytometry measures light scatter and fluorescence of single cells or particles in a stream.)

Assay [2] deals with T2, rat anti-GPRC5D antibody 7B4.
T2 construct: Rat IgG2b, kappa chain
T2 sequence (VH, as listed by the source, chain 1 of 2): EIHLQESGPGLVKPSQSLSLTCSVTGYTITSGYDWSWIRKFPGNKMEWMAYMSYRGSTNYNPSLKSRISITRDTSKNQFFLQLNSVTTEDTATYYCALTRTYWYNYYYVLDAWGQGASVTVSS
T2 sequence (VL, as listed by the source, chain 2 of 2): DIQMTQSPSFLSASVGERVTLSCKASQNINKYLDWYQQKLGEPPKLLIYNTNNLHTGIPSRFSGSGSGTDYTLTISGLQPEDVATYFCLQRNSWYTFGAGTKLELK
The experiment in a line: flow cytometry competition on KMS-34 cells: the peptide with the intramolecular disulfide bond is added together with a fixed amount of 7B4; readout: binding of 7B4 to human GPRC5D on the cells. The method, then: as §1

Assay [3] addresses B2. Description: flow cytometry competition on KMS-34 cells: the peptide with the intramolecular disulfide bond is added together with a fixed amount of 2B1; blocked: binding of 2B1 to human GPRC5D on the cells. As for the experimental part:
as §1

Assay [4] has as its target B4. The experiment in a line: ELISA, immobilised biotinylated peptide without disulfide bond. The source says:
(§2) Epitopes bound by the obtained rat anti-GPRC5D antibodies (2A4, 2B1, and 7B4) were identified using a human GPRC5D amino-terminal peptide […](Biotin)-NH₂ (Sigma-Aldrich Corp.) (SEQ ID NO: 1 of the Sequence Listing; FIG. 2) having a biotinylated carboxy-terminal peptide and lacking an intramolecularly formed disulfide bond, and a human GPRC5D amino-terminal peptide […]-K(Biotin)-NH₂ (Peptide Institute, Inc.) (SEQ ID NO: 2 of the Sequence Listing; FIG. 3) having a lysine-containing biotinylated carboxy terminus and having an intramolecularly formed disulfide bond. Each peptide diluted with PBS was added to Nunc Immobilizer (Thermo Fisher Scientific Inc.), and the plate was left standing at room temperature for 1 hour. After washing three times with PBST, […] containing 1% BSA was added thereto, and the plate was left standing at room temperature for 1 hour. After washing three times with PBST, each rat anti-GPRC5D antibody (2A4, 2B1, and 7B4) prepared in Example 1)-7 and diluted to 0.1 ng/mL to 1 μg/mL with PBS was added thereto, and the plate was left standing at room temperature for 1 hour. […] After washing three times with PBST, SuperSignal™ ELISA Pico Chemiluminescent Substrate (Thermo Fisher Scientific Inc.) was added thereto, and the luminescence was measured using a plate reader (ENVISION; PerkinElmer, Inc.).
A general note: An ELISA detects its analyte on a solid surface through an enzyme-linked reagent.

The target of assay [5] is T3, human GPRC5D (human, UniProt Q9NZD1 1-345).
T3 construct: whole, on cells; also called hGPRC5D; G-protein coupled receptor family C group 5 member D
The experiment in a line: flow cytometry, KHM-1B cells. The method, then: Human multiple myeloma cell line KHM-1B cells (JCRB Cell Bank) expressing GPRC5D were adjusted to a concentration of 5×10⁶ cells/mL with PBS containing 5% FBS, inoculated in an amount of 100 μL/well to a 96-well U-bottomed microplate, and centrifuged to remove a supernatant. Each rat anti-GPRC5D antibody (2A4, 2B1, and 7B4) adjusted to 0.32 ng/mL to 10 μg/mL in Example 1)-7 was added thereto in an amount of 100 μL/well, and the plate was left standing at 4° C. for 1 hour. The cells were washed twice with PBS containing 5% FBS. Then, PE Goat Anti-Rat Ab (Becton, Dickinson and Company) diluted 100-fold with PBS containing 5% FBS was added thereto at a concentration of 100 μL/well, and the plate was left standing at 4° C. for 1 hour. The cells were washed twice with PBS containing 5% FBS and then resuspended in PBS containing 5% FBS, followed by detection using a flow cytometer (FACSCanto™ II; Becton, Dickinson and Company). The data was analyzed using Flowjo (Tree Star, Inc.). The PE fluorescence intensity of the cell fraction was plotted to a histogram, and the mean fluorescence intensity (MFI) was calculated.

Assay [6] concerns the target T3, human GPRC5D. Description: flow cytometry, KMS-34 cells.
In assay [7] the target is B1. The experiment in a line: ELISA, immobilised biotinylated peptide with disulfide bond.
Description: as §2

The target of assay [8] is T4, amino-terminal peptide of cynomolgus monkey GPRC5D …(Biotin)-NH2 (cynomolgus monkey, C-terminal lysine carrying biotin, C-terminal amide).
T4 construct: also called amino-terminal peptide of biotinylated cynomolgus monkey GPRC5D
T4 peptide: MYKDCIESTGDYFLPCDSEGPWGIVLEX
The experiment in a line: ELISA, chemiluminescence: biotinylated amino-terminal peptide of cynomolgus monkey GPRC5D on NeutrAvidin, scFv detected with HRP anti-FLAG antibody. As for the experimental part: (§3) NeutrAvidin diluted to 1 μg/mL with PBS was added in an amount of 50 μL/well to 96-well Maxi-sorp plate (Black, Nunc/Thermo Fisher Scientific Inc.), and the plate was left standing overnight at 4° C. for immobilization. After washing three times with an ELISA buffer, the amino-terminal peptide of the biotinylated human or cynomolgus monkey GPRC5D (used in Example 10)-1) diluted to 1 μg/mL with PBS was added thereto, and the plate was shaken at room temperature for 1 hour. After washing three times with an ELISA buffer, the plate was blocked with Blocker Casein and washed three times with an ELISA buffer. Then, the C2037, C3048, C3015, or C3022 scFv was added to the plate and reacted at room temperature for 2 hours. After washing three times with an ELISA buffer, a horseradish peroxidase (HRP)-labeled anti-FLAG antibody diluted 5000-fold with an ELISA buffer was added thereto in an amount of 50 μL/well and reacted at room temperature for 1 hour. After washing five times with an ELISA buffer, SuperSignal Pico ELISA Chemiluminescent substrate was added. After 10 minutes, the chemiluminescence was measured using a plate reader.

The target of assay [9] is B1. Description: SPR (Biacore T200), kinetic analysis: biotinylated amino-terminal peptide of human GPRC5D on Sensor Chip CAP, scFv as analyte. As for the experimental part: The binding activity of the anti-GPRC5D antibodies against the amino-terminal peptide of human GPRC5D was tested by SPR using Biacore T200. The amino-terminal peptide of biotinylated human GPRC5D diluted to 2 nM with HBS-EP+ (manufactured by GE Healthcare Bio-Sciences Corp.) was immobilized on Sensor Chip CAP (manufactured by GE Healthcare Bio-Sciences Corp.) by contact at a rate of 10 μL/min for 180 seconds. Then, Kd was calculated by kinetic analysis using a plurality of concentrations of each scFv diluted with HBS-EP+ as analytes.

Assay [10] has as its target T3, human GPRC5D. Description: flow cytometry on KMS-34 cells (endogenous human GPRC5D), anti-FLAG antibody and Alexa 488 anti-mouse IgG detection. The method, then:
The KMS-34 cells were recovered by centrifugation, washed twice with a FACS buffer (PBS containing 0.5% BSA and 2 mM EDTA, pH 7.4), and then suspended in the same solution as above. The C2037, C3048, C3015 or C3022 scFv was added to the obtained cell suspension, and the mixture was left standing at 4° C. for 2 hours. After washing twice with a FACS buffer, the cells were suspended by the addition of an anti-FLAG antibody (Sigma-Aldrich Corp.), and the mixture was further left standing at 4° C. for 1 hour. After washing twice with a FACS buffer, the cells were suspended by the addition of Alexa 488-labeled anti-mouse IgG antibody (Jackson ImmunoResearch Laboratories, Inc.), and the mixture was further left standing at 4° C. for 1 hour. After washing twice with a FACS buffer, the cells were fixed in 1% PFA (prepared from a 32% paraformaldehyde solution (Electron Microscopy Sciences)), followed by detection using a flow cytometer (FACSCanto™ II; Becton, Dickinson and Company). The data was analyzed using Flowjo (Tree Star, Inc.).

Assay [11] deals with B1. Description: ELISA, chemiluminescence: biotinylated amino-terminal peptide of human GPRC5D on NeutrAvidin, scFv detected with HRP anti-FLAG antibody. As for the experimental part:
as §3

Assay [12] has as its target T1, rat anti-GPRC5D antibody 2A4. Description: flow cytometry competition on KMS-34 cells: the peptide without the intramolecular disulfide bond is added together with a fixed amount of 2A4; readout: binding of 2A4 to human GPRC5D on the cells. The method, then:
as §1

The target in assay [13] is T2, rat anti-GPRC5D antibody 7B4. The experiment in a line: flow cytometry competition on KMS-34 cells: the peptide without the intramolecular disulfide bond is added together with a fixed amount of 7B4; readout: binding of 7B4 to human GPRC5D on the cells. The method, then:
as §1

Assay [14] deals with B2. The experiment in a line: flow cytometry competition on KMS-34 cells: the peptide without the intramolecular disulfide bond is added together with a fixed amount of 2B1; blocked: binding of 2B1 to human GPRC5D on the cells. The method, then: as §1

Bridge positions count the residues as written; N and C are the ends. Ends that are not written are not given here. * marks the point of attachment. Biotin = O=C1N[C@H]2[C@H](CS[C@H]2CCCCC(=O)*)N1

As usually defined, the Kd is a measure of binding affinity in units of concentration. As a reminder, the EC50 (read off the curve) is the midpoint of the concentration-response curve.

Regarding B1, the binding result in [1] and in [2] was “no binding (tested: 5000 nM)” each time. For the same molecule, in [3], the “IC50 (read off the curve)” value was roughly 50 nM.

Take B2: the binding result in assay [4] and in assay [7] was “binds” in each case. The dissociation constant Kd in the assay with human GPRC5D [5] was determined as 14.8 nM; with human GPRC5D [6], 12.7 nM. The “MFI (max)” value was found to be 2390 in the assay with human GPRC5D [5] and 3160 with human GPRC5D [6].

B3: human antibody C3048 scFv (scFv)
scFv: QVQLVQSGAEVKKPGSSVKVSCKASGGTFSRYAISWVRQAPGQGLEWMGGIIPIFGTANYAQKFQGRVTITADQSTRTAYMDLGRLRSEDTAVYYCALEGFRDSLKRNPFDIWGQGTMVTVSSGGGGSGGGGSGGGGSQSVVTQPPSVSAAPGQKVTISCSGGTTNIGSNYVSWYQQLPGTAPKFLMYENNKRPSGIPDRFSGSKSGTSATLAITGLQTGDEATYYCSTWDSSLNTGLFGGGTKLTVL
notes: also called C3048 antibody scFv; not shown: FLAG and His tags at the carboxyl terminus
Take B3: the binding result in assay [8] is reported as “binds”. The molecule further returned a Kd in [9] of 0.36 nM. For the same molecule, the entries for the “EC50 (read off the curve)” value (with human GPRC5D [10]; in assay [11]) were roughly 10 nM and roughly 3 nM, respectively.

For the molecule B4, the binding result in [12] and in [13] was “no binding (tested: 5000 nM)” throughout. Also, the “IC50 (read off the curve)” value in assay [14] was roughly 50 nM.
